These results are taken from publication PMC3511314, “Functional Characterization of Two M42 Aminopeptidases Erroneously Annotated as Cellulases” (PLoS ONE, 2012).

Holding throughout (assay): Michaelis-Menten kinetics of pNA hydrolysis (Km)
Common to all, as to conditions: Co2+

Substrate in data set [1]: CSCC[C@H](N)C(=O)Nc1ccc([N+](=O)[O-])cc1
In kind it is biochemical, Thermotoga maritima.

Substrate in data set [2]: CC[C@H](C)[C@H](N)C(=O)Nc1ccc([N+](=O)[O-])cc1
In kind it is biochemical, Thermotoga maritima.

Substrate in data set [3]: CC(C)C[C@H](N)C(=O)Nc1ccc([N+](=O)[O-])cc1
In kind it is biochemical, Thermotoga maritima.

Substrate in data set [4]: CSCC[C@H](N)C(=O)Nc1ccc([N+](=O)[O-])cc1
Format: biochemical, Acetivibrio thermocellus.

Substrate in data set [5]: CC[C@H](C)[C@H](N)C(=O)Nc1ccc([N+](=O)[O-])cc1
In kind it is biochemical, Acetivibrio thermocellus.

Substrate in data set [6]: CC(C)C[C@H](N)C(=O)Nc1ccc([N+](=O)[O-])cc1
In kind it is biochemical, Acetivibrio thermocellus.

As usually defined, the Km is the concentration of substrate that gives half-maximal velocity. By kcat is commonly meant the maximal rate divided by the concentration of active sites. For orientation: kcat/Km means the second-order rate constant that governs catalysis at low substrate concentration.

B1: TmPep1050 (Thermotoga maritima MSB8) (protein)
chain: MKELIRKLTEAFGPSGREEEVRSIILEELEGHIDGHRIDGLGNLIVWKGSGEKKVILDAHIDEIGVVVTNVDDKGFLTIEPVGGVSPYMLLGKRIRFENGTIGVVGMEGETTEERQENVRKLSFDKLFIDIGANSREEAQKMCPIGSFGVYDSGFVEVSGKYVSKAMDDRIGCAVIVEVFKRIKPAVTLYGVFSVQEEVGLVGASVAGYGVPADEAIAIDVTDSADTPKAIKRHAMRLSGGPALKVKDRASISSKRILENLIEIAEKFDIKYQMEVLTFGGTNAMGYQRTREGIPSATVSIPTRYVHSPSEMIAPDDVEATVDLLIRYLGA
notes: recombinant TmPep1050 (TM1050 ORF)
B1: in data set [1], the Km was found to be 650 ± 50 µM, the kcat amounted to 0.009 ± 0.001 s⁻¹ and the kcat/Km was determined as 13.8 M⁻¹ s⁻¹. For the same protein, in data set [2], the Km was 1900 ± 200 µM, the kcat was 0.059 ± 0.008 s⁻¹ and the kcat/Km worked out at 31.1 M⁻¹ s⁻¹. In addition, in data set [3], the Km came out at 4000 ± 300 µM, the kcat was 0.253 ± 0.019 s⁻¹ and the kcat/Km amounted to 63.2 M⁻¹ s⁻¹.

B2: CelM (Acetivibrio thermocellus) (protein)
chain: MEEEDMFDLLKKFTGIVGVSGNEEEIREAIIEEIKECVDEIKVDTLGNLIAVKKGKGKKIMVAAHMDEIGVMVTYIDDKGFLRFSAVGGVSRYDCIGQRVKFKNGVVGAVYYEEKLEDMKNLQLSKMYIDIGARSREEALKMVNIGDVACFVGDAVLQGDTVISKALDNRSGCAVVVKAIKELKKTDNEIYFVFTVQEEVGLRGAKTAAFSIKPDIAIAVDVTMTGDTPESHPMEVKCGGGPAIKVKDRSVICHPEVRKLLEESAKRNNIPYQLEILEAGGSDPGSIHLTAGGIPSGAISIPVRYVHSPVETASMSDINNAVKLLVEAIC
notes: recombinant dodecameric CelM bearing a C-terminal hexahistidine tag
As for B2, the Km came to 2900 ± 150 µM in data set [4], 2800 ± 200 µM in data set [5] and 3500 ± 400 µM in data set [6]. For the same protein, the kcat in data set [4] is 0.072 ± 0.006 s⁻¹; in data set [5], 0.11 ± 0.01 s⁻¹; in data set [6] it was 0.4 ± 0.03 s⁻¹. Moreover, the kcat/Km in data set [4] was determined as 24.8 M⁻¹ s⁻¹; in data set [5], 39.3 M⁻¹ s⁻¹; in data set [6], 114 M⁻¹ s⁻¹.
